Test [1] is described as follows: Halogenase activity of Dsg205 and Dsg701 against 600 member compound library, LC-MSMS assay. In kind it is biochemical. The note with it: 600 member compound library.
Test [2] in a line: Halogenation of the initial 300 compound library by purified halogenase, LCMS. It is filed as biochemical. The note with it: out of 300 compounds.
The conditions of test [3]: engineered to expand substrate scope; cited from earlier work.

B1: Dsg205: halogenase from Trichoderma virens Gy29-8 GenBank: EHK23009.1 (protein)
chain: MAIPEKCTVLVVGGGPAGSYAAAALAREGIDTVILEADKFPRYHIGESMLASMRHFLRFIDVDSVFDSYGFTKKVGAAFKLNPKKREGYTDFLAAGGPENYAWNVVRSEADQLLFQHAAKSGAKAFDGVQVKSINFIDVPYKGPGQLPHDYPGRPVSATYVQKDDNTPREIKFDYIIDASGRVGILSTKHLKNRKYNQGLKNVATWGYWKGAGAYGKGTPRENSPFFEALQDESGWAWLIPLHNGTASVGIVMNQKMSVERKTQAGSPDSKTFYLDCLKELAPDLTKLMENGELITDIKSAADYSYSASGYAIPYARIAGDAGCFIDPYFSSGVHLAFVGGLSAAATIAAAIRGDCSEEAAADWHSKKIADAYIRFLLVVLSAYRQIRSQEEPVLSDINEDNFDRAFAFFRPVIQGIADVDTKLSQDELRKTLEFCSNAFEPVKPEDRTAMLEKLGKDPATAYQVDLSDQQRTVVDHIRARQMMRTEDTININSFGTDSINGFVPNLKRGELGLVPAKV
modifications: left off: small tags and cut ends
Take B1: the “members of the library halogenated (substrates accepted)” value in test [1] was determined as 33. Further, the “compounds of the initial 300 compound library halogenated” value in test [2] came to 3.

B2: PrnA: tryptophan 7-halogenase, first step in pyrrolnitrin biosynthesis (protein, UniProt P95480 1-538, looked up)
Tryptophan 7-halogenase PrnA: MNKPIKNIVIVGGGTAGWMAASYLVRALQQQANITLIESAAIPRIGVGEATIPSLQKVFFDFLGIPEREWMPQVNGAFKAAIKFVNWRKSPDPSRDDHFYHLFGNVPNCDGVPLTHYWLRKREQGFQQPMEYACYPQPGALDGKLAPCLSDGTRQMSHAWHFDAHLVADFLKRWAVERGVNRVVDEVVDVRLNNRGYISNLLTKEGRTLEADLFIDCSGMRGLLINQALKEPFIDMSDYLLCDSAVASAVPNDDARDGVEPYTSSIAMNSGWTWKIPMLGRFGSGYVFSSHFTSRDQATADFLKLWGLSDNQPLNQIKFRVGRNKRAWVNNCVSIGLSSCFLEPLESTGIYFIYAALYQLVKHFPDTSFDPRLSDAFNAEIVHMFDDCRDFVQAHYFTTSRDDTPFWLANRHDLRLSDAIKEKVQRYKAGLPLTTTSFDDSTYYETFDYEFKNFWLNGNYYCIFAGLGMLPDRSLPLLQHRPESIEKAEAMFASIRREAERLRTSLPTNYDYLRSLRDGDAGLSRGQRGPKLAAQESL
For B2, the “yields after directed evolution and rational design” value in test [3] is reported as 15-65%.

(Values after US12456543B2, “Enzymes” (UNIVERSITY COURT OF THE UNIVERSITY OF ST ANDREWS, priority 2018, dated 2025).)
